Test results from publication PMC6508782.

Biological target: Hcf106 G6CV14C (Pisum sativum)
Test: cross-linking; disulfide cross-linking with 1 mM CuP for 5 min of [3H]Hcf106 Cys variants integrated into NEM-pretreated thylakoid; non-reducing SDS-PAGE, fluorography

Hcf106 G6CV14C (natural protein)
stoichiometry N: < 8
